For 1 molecule, Kd results are on record in patent US6987169.

In this assay the target is rSK2 small conductance, calcium-activated potassium channel (rat), P70604.
Sequence of rSK2 small conductance, calcium-activated potassium channel (rat), P70604 (P70604 whole entry): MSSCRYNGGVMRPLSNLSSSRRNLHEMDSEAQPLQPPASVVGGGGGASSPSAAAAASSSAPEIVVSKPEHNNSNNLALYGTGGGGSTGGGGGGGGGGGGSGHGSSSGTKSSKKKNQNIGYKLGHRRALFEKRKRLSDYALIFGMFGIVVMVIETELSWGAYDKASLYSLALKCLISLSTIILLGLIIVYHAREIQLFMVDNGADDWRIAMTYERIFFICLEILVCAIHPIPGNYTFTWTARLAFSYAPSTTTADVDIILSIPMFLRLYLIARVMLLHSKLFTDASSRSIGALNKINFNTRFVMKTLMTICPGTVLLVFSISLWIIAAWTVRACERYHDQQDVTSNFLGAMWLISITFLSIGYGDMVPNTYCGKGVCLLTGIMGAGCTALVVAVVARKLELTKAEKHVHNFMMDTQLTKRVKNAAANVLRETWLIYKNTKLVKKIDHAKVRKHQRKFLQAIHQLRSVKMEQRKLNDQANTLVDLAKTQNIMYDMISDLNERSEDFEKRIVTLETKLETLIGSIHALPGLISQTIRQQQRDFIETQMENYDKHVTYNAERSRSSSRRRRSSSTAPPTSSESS

Turning to CNCKAPETALCARRCQQH (modifications not checked) [apamin, P01500 28-45], the Kd is 63 µM.
